Molecular target: Full-length HA-tagged PTPN12 (human) (UniProt Q05209)
Assay: co-IP; Hek293 cells co-transfected with HA-PTPN12 and GFP-tagged FlnAs; 500 µg lysate in NETF buffer, 6 µg anti-HA 2 h at 4 °C, protein A beads; immunoblot

UniProt Q05209, sequence (Q05209 whole entry): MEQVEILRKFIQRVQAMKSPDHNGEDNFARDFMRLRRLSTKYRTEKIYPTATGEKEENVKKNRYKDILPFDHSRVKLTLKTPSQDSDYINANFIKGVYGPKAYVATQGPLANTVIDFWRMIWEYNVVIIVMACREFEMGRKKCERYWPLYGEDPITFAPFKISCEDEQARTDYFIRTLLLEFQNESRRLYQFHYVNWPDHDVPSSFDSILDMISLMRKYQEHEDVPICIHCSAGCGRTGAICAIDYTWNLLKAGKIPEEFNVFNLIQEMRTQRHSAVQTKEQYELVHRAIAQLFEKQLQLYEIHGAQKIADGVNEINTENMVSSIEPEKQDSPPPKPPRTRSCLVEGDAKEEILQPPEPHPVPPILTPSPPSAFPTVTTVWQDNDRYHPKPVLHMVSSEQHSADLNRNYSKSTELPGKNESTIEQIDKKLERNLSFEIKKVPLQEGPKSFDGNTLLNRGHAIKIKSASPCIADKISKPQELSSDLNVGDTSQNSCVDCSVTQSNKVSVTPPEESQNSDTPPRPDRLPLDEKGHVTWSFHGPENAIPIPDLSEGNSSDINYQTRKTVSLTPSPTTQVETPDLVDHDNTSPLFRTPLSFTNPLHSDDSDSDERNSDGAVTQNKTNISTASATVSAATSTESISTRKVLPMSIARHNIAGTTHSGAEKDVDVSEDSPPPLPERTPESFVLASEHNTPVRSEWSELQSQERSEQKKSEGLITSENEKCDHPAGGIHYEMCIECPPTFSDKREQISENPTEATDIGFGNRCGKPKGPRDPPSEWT

reduction of the FlnA co-immunoprecipitated with respect to FlnA-WT [%]	Substance
> 60	GFP-tagged-FlnA-G288R, P21333 1-2647
> 60	GFP-tagged-FlnA-P637Q, P21333 1-2647

Source: publication PMC4654411
